Data taken from article PMC4369733, “Design of a PDZbody, a bivalent binder of the E6 protein from human papillomavirus” (Scientific Reports, 2015).

T1: pseudo wild type SAP97 PDZ2 (residues 311-407; I342W, C378A) (human, UniProt Q12959 311-407, I342W | C378A)
T1 construct: SAP97 (also called human Dlg), second PDZ domain (PDZ2), residues 311-407; Residues of the thrombin site probably stay at the N-terminus after cleavage (surmised); also called pWT; source: E. coli BL21(DE3) pLysS, purified (nickel-Sepharose, thrombin digestion, nickel reload, Source 30Q); not shown: His tag, N-terminal, cleaved; lipoyl protein domain (Bacillus stearothermophilus), N-terminal, …
T1 sequence (looked up): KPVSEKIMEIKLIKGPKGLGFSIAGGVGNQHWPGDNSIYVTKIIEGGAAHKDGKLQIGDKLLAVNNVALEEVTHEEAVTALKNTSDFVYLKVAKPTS


How the values were obtained:
[1] = target: Lipo-E6_(18)-C: C-terminal domain of HPV18 E6 (residues 82-158) linked via the N-terminus to His-tagged lipoyl domain (HPV18) (UniProt P06463); test: stopped-flow fluorescence kinetics; association: PDZ variant (6-20 µM) mixed with Lipo-E6_(18)-C (2 µM), Trp342 emission; 10°C, 50 mM potassium phosphate pH 7.5, 240 µM β-mercaptoethanol; kon from kobs versus PDZ concentration; Kd = koff/kon
[2] = target: Lipo-E6_(18)-C: C-terminal domain of HPV18 E6 (residues 82-158) linked via the N-terminus to His-tagged lipoyl domain (HPV18) (UniProt P06463); test: stopped-flow fluorescence kinetics; displacement: pre-formed complex of PDZ variant (0.75 µM) and Lipo-E6_(18)-C (0.75 µM) mixed with dansylated peptide (20, 150 and 300 µM); 10°C, 50 mM potassium phosphate pH 7.5, 240 µM β-mercaptoethanol; koff = kobs at high peptide
[3] = target: PDZbody20 (E6AP helix, Gly-Ser linker of 15 residues, PDZϕ9) (UniProt Q12959); test: ITC; full-length HPV16 E6 titrated into the PDZ variant or PDZbody; ITC200, 25°C, 20 mM sodium phosphate pH 6.8, 200 mM NaCl, 1 mM TCEP; single-site model
[4] = target: PDZbody25 (E6AP helix, Gly-Ser linker of 20 residues, PDZϕ9) (UniProt Q12959); test: as above
[5] = target: pseudo wild type SAP97 PDZ2 (residues 311-407; I342W, C378A) (human) (UniProt Q12959); test: as above
[6] = target: PDZbody15 (E6AP helix, Gly-Ser linker of 10 residues, PDZϕ9) (UniProt Q12959); test: as above
[7] = target: PDZbody8 (E6AP helix, Gly-Ser linker of 3 residues, PDZϕ9) (UniProt Q12959); test: as above
[8] = target: PDZϕ9 (SAP97 PDZ2 pseudo wild type with L391F, K392M) (human) (UniProt Q12959); test: as above
[9] = target: T1, pseudo wild type SAP97 PDZ2 (residues …); test: stopped-flow fluorescence kinetics; association: PDZ variant (6-20 µM) mixed with Lipo-E6_(18)-C (2 µM), Trp342 emission; 10°C, 50 mM potassium phosphate pH 7.5, 240 µM β-mercaptoethanol; kon from kobs versus PDZ concentration; Kd = koff/kon; settings: both partners purified
[10] = target: T1, pseudo wild type SAP97 PDZ2 (residues …); test: stopped-flow fluorescence kinetics; displacement: pre-formed complex of PDZ variant (0.75 µM) and Lipo-E6_(18)-C (0.75 µM) mixed with dansylated peptide (20, 150 and 300 µM); 10°C, 50 mM potassium phosphate pH 7.5, 240 µM β-mercaptoethanol; koff = kobs at high peptide; settings: both partners purified

Molecule	Kd [1] [nM]	kon [1] [M⁻¹ s⁻¹]	koff [2] [s⁻¹]	other results
PDZϕ1 (SAP97 PDZ2 pseudo wild type with E385R) (from UniProt Q12959 311-407) (designed binder)	920	8.2e+06	7.5	–
PDZϕ2 (SAP97 PDZ2 pseudo wild type with E385H, L391F, K392Q) (from UniProt Q12959 311-407) (designed binder)	260	5.9e+06	1.5	–
PDZϕ3 (SAP97 PDZ2 pseudo wild type with L391F, K392A) (from UniProt Q12959 311-407) (designed binder)	160	4.6e+06	0.75	–
PDZϕ4 (SAP97 PDZ2 pseudo wild type with E385H, K392R) (from UniProt Q12959 311-407) (designed binder)	600	8.5e+06	5.1	–
PDZϕ5 (SAP97 PDZ2 pseudo wild type with E385H, K392T) (from UniProt Q12959 311-407) (designed binder)	780	4.9e+06	3.8	–
PDZϕ6 (SAP97 PDZ2 pseudo wild type with E385K, K392Q) (from UniProt Q12959 311-407) (designed binder)	2500	4e+06	10.2	–
PDZϕ7 (SAP97 PDZ2 pseudo wild type with E385K, K392R) (from UniProt Q12959 311-407) (designed binder)	610	8.9e+06	5.5	–
PDZϕ8 (SAP97 PDZ2 pseudo wild type with E385T) (from UniProt Q12959 311-407) (designed binder)	660	5.8e+06	3.8	–
PDZϕ9 (SAP97 PDZ2 pseudo wild type with L391F, K392M) (from UniProt Q12959 311-407) (designed binder)	93	5.9e+06	0.55	–
full-length HPV16 E6 (from UniProt P03126 1-158) (natural protein)	–	–	–	Kd [3]: 65 nM; dH [3]: -17 kcal/mol; stoichiometry N [3]: 0.94; Kd [4]: 79 nM; dH [4]: -19.8 kcal/mol; stoichiometry N [4]: 0.92; Kd [5]: 6300 nM; dH [5]: -4.6 kcal/mol; stoichiometry N [5]: 0.75; Kd [6]: 160 nM; dH [6]: -16.5 kcal/mol; stoichiometry N [6]: 0.93; Kd [7]: 200 nM; dH [7]: -19.1 kcal/mol; stoichiometry N [7]: 0.76; Kd [8]: 910 nM; dH [8]: -9.9 kcal/mol; stoichiometry N [8]: 0.75
Lipo-E6_(18)-C: C-terminal domain of HPV18 E6 (residues 82-158) linked via the N-terminus to His-tagged lipoyl domain (domain or fragment, HPV18 E6 C-terminal domain, residues 82-158, UniProtKB P06463; A thrombin cleavage site (LVPRGS) stands between the lipoyl domain and the E6 domain and was not cut; also called HPV18 E6 C-terminal domain; source: E. coli BL21(DE3) pLysS, purified (nickel-Sepharose, Source 30Q; thrombin digestion omitted); not shown: His tag, N-terminal, kept; lipoyl protein domain (Bacillus stearothermophilus), …) SDSVYGDTLEKLTNTGLYNLLIRCLRCQKPLNPAEKLRHLNEKRRFHNIAGHYRGQCHSCCNRARQERLQRRRETQV	–	–	–	Kd [9]: 540 nM; kon [9]: 6.2e+06 M⁻¹ s⁻¹; koff [10]: 3.3 s⁻¹
